We go through twelve molecules from patent US20230398217A1 (published 2023).

To fix the notation:
T1: HA-1 (HMHA1, also known as ARHGAP45; R139H polymorphism, genotype RS_1801284 A/G or A/A) peptide on … (human)
T1 peptide: VLHDDLLEA

T2: CCDC114 peptide on HLA-A*02:01 (human)
T2 peptide: SMIDDLLGV

B1: HA1-Fred Hutch (TCR, V domains shown)
Valpha: KQEVTQIPAALSVPEGENLVLNCSFTDSAIYNLQWFRQDPGKGLTSLLLIQSSQREQTSGRLNASLDKSSGRSTLYIAASQPGDSATYLCAVIGLGGTYKYIFGTGTRLKVLA
Vbeta: DTGVSQDPRHKITKRGQNVTFRCDPISEHNRLYWYRQTLGQGPEFLTYFQNEAQLEKSRLLSDRFSAERPKGSFSTLEIQRTEQGDSAMYLCASSLVKGEKLFFGSGTQLSVL
B2: HA1-TSC-100 (TCR, V domains shown)
Valpha: KQEVTQIPAALSVPEGENLVLNCSFTDSAIYNLQWFRQDPGKGLTSLLLIQSSQREQTSGRLNASLDKSSGRSTLYIAASQPGDSATYLCAVRGGTSGTYKYIFGTGTRLKVLA
Vbeta: B1 Vbeta with L96R, V97T, K98A, E100D, K101T, L102Q, F103Y, S106P, Q109R, S111T
B3: HA1-10-93 (TCR, V domains shown)
Valpha: GENVEQHPSTLSVQEGDSAVIKCTYSDSASNYFPWYKQELGKRPQLIIDIRSNVGEKKDQRIAVTLNKTAKHFSLHITETQPEDSAVYFCPIRQFYFGTGTSLTVIP
Vbeta: B1 Vbeta with K98V, G99V, E100D, K101T, L102Q, F103Y, S106P, Q109R, S111T
B4: HA1-2-23 (TCR, V domains shown)
Valpha: B2 Valpha with G94P, G95T
Vbeta: B1 Vbeta with S95I, K98G, E100T, K101E, L102A, S106Q, Q109R, S111T, L113V
B5: HA1-2-21 (TCR, V domains shown)
Valpha: GQQVMQIPQYQHVQEGEDFTTYCNSSTTLSNIQWYKQRPGGHPVFLIQLVKSGEVKKQKRLTFQFGEAKKNSSLHITATQTTDVGTYFCAGPSGNTPLVFGKGTRLSVIA
Vbeta: B1 Vbeta with V97L, K98T, G99T, E100N, K101E, L102Q, S106P, Q109R, S111T
B6: HA1-9-105 (TCR, V domains shown)
Valpha: GENVEQHPSTLSVQEGDSAVIKCTYSDSASNYFPWYKQELGKRPQLIIDIRSNVGEKKDQRIAVTLNKTAKHFSLHITETQPEDSAVYFCAVGQNFVFGPGTRLSVLP
Vbeta: DTGVSQDPRHKITKRGQNVTFRCDPISEHNRLYWYRQTLGQGPEFLTYFQNEAQLEKSRLLSDRFSAERPKGSFSTLEIQRTEQGDSAMYLCASSPTTINEAFFGQGTRLTVV
B7: HA1-9-46 (TCR, V domains shown)
Valpha: B3 Valpha with P91A, I92A, R93S, Q94I, F95M, Y96R, T99A, S102R, I106K
Vbeta: B6 Vbeta with D7N, P96L, T97S, T98V, I99V, N100D, A102Q, Q106P, V113L
B8: HA1-10-26 (TCR, V domains shown)
Valpha: GENVEQHPSTLSVQEGDSAVIKCTYSDSASNYFPWYKQELGKRPQLIIDIRSNVGEKKDQRIAVTLNKTAKHFSLHITETQPEDSAVYFCAASGLGSGAGSYQLTFGKGTKLSVIP
Vbeta: B1 Vbeta with V97L, K98A
B9: HA1-10-34 (TCR, V domains shown)
Valpha: GENVEQHPSTLSVQEGDSAVIKCTYSDSASNYFPWYKQELGKRPQLIIDIRSNVGEKKDQRIAVTLNKTAKHFSLHITETQPEDSAVYFCAARGPGTYKYIFGTGTRLKVLA
Vbeta: DTGVSQDPRHKITKRGQNVTFRCDPISEHNRLYWYRQTLGQGPEFLTYFQNEAQLEKSRLLSDRFSAERPKGSFSTLEIQRTEQGDSAMYLCASVAGTVYNEQFFGPGTRLTVL
B10: HA1-6-2 (TCR, V domains shown)
Valpha: AQTVTQSQPEMSVQEAETVTLSCTYDTSESNYYLFWYKQPPSRQMILVIRQEAYKQQNATENRFSVNFQKAAKSFSLKISDSQLGDTAMYFCALYSGAGSYQLTFGKGTKLSVIP
Vbeta: B9 Vbeta with V95F, A96E, G97L, T98A, V99G, Y100G, N101Y
B11: HA1-10-104 (TCR, V domains shown)
Valpha: AQSVTQPDIHITVSEGASLELRCNYSYGATPYLFWYVQSPGQGLQLLLKYFSGDTLVQGIKGFEAEFKRSQSSFNLRKPSVHWSDAAEYFCAVANAGGTSYGKLTFGQGTILTVHP
Vbeta: NAGVTQTPKFRVLKTGQSMTLLCAQDMNHEYMYWYRQDPGMGLRLIHYSVGEGTTAKGEVPDGYNVSRLKKQNFLLGLESAAPSQTSVYFCASGRSGTKFFGPGTRLTVL
B12: HA1-1-12 (TCR, V domains shown)
Valpha: EDQVTQSPEALRLQEGESSSLNCSYTVSGLRGLFWYRQDPGKGPEFLFTLYSAGEEKEKERLKATLTKKESFLHITAPKPEDSATYLCAVHLNAGGTSYGKLTFGQGTILTVHP
Vbeta: DAGVTQSPTHLIKTRGQHVTLRCSPISGHKSVSWYQQVLGQGPQFIFQYYEKEERGRGNFPDRFSARQFPNYSSELNVNALLLGDSALYLCASSFDRGTNGYTFGSGTRLTVV

Changes are numbered by the printed parent chain.

The first assay addresses T1, HA-1 (HMHA1, also known as ARHGAP45; …). Description: killing.
B1: the binding result is given as “recognises”.

The next assay concerns the target T2, CCDC114 peptide on HLA-A*02:01. The experiment in a line: activation reporter or marker.
Consider B2, for which the binding result is “no recognition”.

On to B1, for which the binding result was “recognises”.

The target in the next assay is T1, HA-1 (HMHA1, also known as ARHGAP45; …). The experiment in a line: multimer staining.
In the case of B2, the binding result is on record as “recognises”.

As to B3, the binding result is “recognises”.

Regarding B4, the binding result is recorded as “recognises”.

For the molecule B5, the binding result is “recognises”.

As to B6, the binding result is given as “recognises”.

With B7, the binding result is listed as “recognises”.

For the molecule B8, the binding result was “recognises”.

As to B9, the binding result is recorded as “recognises”.

Take B10: the binding result is “recognises”.

On to B11, for which the binding result is recorded as “recognises”.

Regarding B12, the binding result is listed as “recognises”.
